Data published in PMC7352350, “Molecular Interactions Stabilizing the Promatrix Metalloprotease-9·Serglycin Heteromer” (International Journal of Molecular Sciences, 2020).

B1: recombinant human His-tagged serglycin (natural protein, UniProt P10124 28-158, looked up)
chain: YPTRRARYQWVRCNPDSNSANCLEEKGPMFELLPGESNKIPRLRTDLFPKTRIQDLNRIFPLSEDYSGSGFGSGSGSGSGSGSGFLTEMEQDYQLVDESDAFHDNLRSLDRNLPSDSQDLGQHGLEEDFML
notes: serglycin core protein, human, the tag stands instead of the signal peptide; no GAG chains; numbers count on: the mature protein (1-131); also called Ht-SG; SG core protein; source: bought: ProSpec (produced in Escherichia coli)
B2: proMMP-9 purified from THP-1 cells (enzyme, human (endogenous in THP-1), UniProt P14780 20-707, looked up)
chain: APRQRQSTLVLFPGDLRTNLTDRQLAEEYLYRYGYTRVAEMRGESKSLGPALLLLQKQLSLPETGELDSATLKAMRTPRCGVPDLGRFQTFEGDLKWHHHNITYWIQNYSEDLPRAVIDDAFARAFALWSAVTPLTFTRVYSRDADIVIQFGVAEHGDGYPFDGKDGLLAHAFPPGPGIQGDAHFDDDELWSLGKGVVVPTRFGNADGAACHFPFIFEGRSYSACTTDGRSDGLPWCSTTANYDTDDRFGFCPSERLYTQDGNADGKPCQFPFIFQGQSYSACTTDGRSDGYRWCATTANYDRDKLFGFCPTRADSTVMGGNSAGELCVFPFTFLGKEYSTCTSEGRGDGRLWCATTSNFDSDKKWGFCPDQGYSLFLVAAHEFGHALGLDHSSVPEALMYPMYRFTEGPPLHKDDVNGIRHLYGPRPEPEPRPPTTTTPQPTAPPTVCPTGPPTVHPSERPTAGPTGPPSAGPTGPPTAGPSTATTVPLSPVDDACNVNIFDAIAEIGNQLYLFKDGKYWRFSEGRGSRPQGPFLIADKWPALPRKLDSVFEERLSKKLFFFSGRQVWVYTGASVLGPRRLDKLGLGADVAQVTGALRSGRGKMLLFSGRRLWRFDVKAQMVDPRSASEVDRMFPGVPLDTHDVFQYREKAYFCQDRFYWRVSSRSELNQVDQVGYVTYDILQCPED
notes: matrix metalloprotease-9 proenzyme, human; pre domain cleaved off, the mature proenzyme is 20-707; the preparation holds a small amount of TIMP-1; monomer and reduction-sensitive homomultimer; also called pMMP-9; promatrix metalloprotease-9; source: purified from conditioned medium of PMA-stimulated THP-1 cells (Q-Sepharose pass-through, gelatin-Sepharose)
B3: recombinant full-length proMMP-9 (enzyme, human, UniProt P14780 20-707, looked up)
chain: B2 chain
notes: matrix metalloprotease-9 proenzyme, human, full-length; pre domain cleaved off, the mature proenzyme is 20-707; also called rpMMP-9; source: Sf9, baculovirus, purified (gelatin-Sepharose)
B4: recombinant proMMP-9 lacking the HPX domain (domain or fragment, human, UniProt P14780 20-515, looked up)
chain: APRQRQSTLVLFPGDLRTNLTDRQLAEEYLYRYGYTRVAEMRGESKSLGPALLLLQKQLSLPETGELDSATLKAMRTPRCGVPDLGRFQTFEGDLKWHHHNITYWIQNYSEDLPRAVIDDAFARAFALWSAVTPLTFTRVYSRDADIVIQFGVAEHGDGYPFDGKDGLLAHAFPPGPGIQGDAHFDDDELWSLGKGVVVPTRFGNADGAACHFPFIFEGRSYSACTTDGRSDGLPWCSTTANYDTDDRFGFCPSERLYTQDGNADGKPCQFPFIFQGQSYSACTTDGRSDGYRWCATTANYDRDKLFGFCPTRADSTVMGGNSAGELCVFPFTFLGKEYSTCTSEGRGDGRLWCATTSNFDSDKKWGFCPDQGYSLFLVAAHEFGHALGLDHSSVPEALMYPMYRFTEGPPLHKDDVNGIRHLYGPRPEPEPRPPTTTTPQPTAPPTVCPTGPPTVHPSERPTAGPTGPPSAGPTGPPTAGPSTATTVPLSPVDDA
notes: MMP-9 proenzyme, human; stop codon behind the codon for A515; the mature proenzyme starts at 20; also called rpMMP-9ΔHPX; proMMP-9ΔHPX; source: Sf9, baculovirus, purified (gelatin-Sepharose)
B5: SG peptide 21 with D46 changed to A (peptide, UniProt P10124 68-87, looked up)
peptide: PRLRTALFPKTRIQDLNRIF
notes: serglycin core protein, mutated 20-mer of spot 21; numbers count on: the mature protein (1-131); source: synthetic peptide on a cellulose membrane
B6: SG peptide 23 with D46 changed to A (peptide, UniProt P10124 72-91, looked up)
peptide: TALFPKTRIQDLNRIFPLSE
notes: serglycin core protein, mutated 20-mer of spot 23; numbers count on: the mature protein (1-131); source: synthetic peptide on a cellulose membrane

Columns and labels:
[1] = target: B2; test: far-Western, overlay or dot blot; slot blot: 200 ng Ht-SG on a polyvinyl difluoride membrane, blocked with milk powder, incubated with pMMP-9 for 2.5 h at room temperature; detected with antibody against proMMP-9; details: both partners purified
[2] = target: the molecule itself; test: SDS-PAGE, Western blotting and gelatin zymography under non-reducing and reducing conditions; purified preparations; SDS-stable, reduction-sensitive homomultimer beside the monomer
[3] = target: B2; test: peptide or protein array; mutated SG 20-mer peptides on cellulose, incubated with pMMP-9; antibody against MMP-9; details: both partners purified

Row | Binder | binding result [2] | binding result [3] | further results
1 | B1 |  |  | binding result [1]: binds
2 | B2 | binds |  | 
3 | B3 | binds |  | 
4 | B4 | binds |  | 
5 | B5 |  | binds | 
6 | B6 |  | binds | 
